Measured values: the supplement of paper PMC10567573

B1: FAM189A2 (parent)
chain: GSEAAVIPLDLGCTQVTQDGDIPN
B2: TOR1AIP2 (parent)
chain: SPGHSSAGQEGEDTLRRRLLAPEA

Variants of: B1
Experiment: protein stability index of a GFP-peptide fusion (GPS, HEK-293T) (PSI 1-6); higher = more stable
Conditions: c terminus: a fixed tail appended
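Further: lentivirally expressed fusions sorted by FACS into six bins by GFP to DsRed ratio, PSI derived from sequencing read proportions per bin multiplied by bin number.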

Protein stability index, by site and new letter:
L9: R 5.22, H 5.47, I 5.15, N 5.55, M 5.6, P 5.46, Y 5.31, W 4.67, V 5.42, S 5.7, K 5.46, G 5.85, T 5.5, Q 5.69
D10: S 5.15, R 5.07, T 5.34, N 5.14, I 3.7, M 4.02, K 4.85, V 4.48, G 5.29, A 5.39, L 4.2, Q 4.92, W 4.02, Y 4.39, P 5.26, H 5.26, F 3.9, E 5.18, C 4.38
G12: M 4.82, N 5.09, I 4.96, D 5.61, Y 5.05, R 4.87, E 4.86, Q 5.44, P 5.52, A 5.5, F 4.76, C 4.6, K 5.2, T 5.38, V 5.16, W 4.62, H 4.87, S 4.37, L 4.93
N24: I 4.51, M 4.95, Q 5.3, F 4.53, Y 4.91, L 4.79, T 5.54, R 4.91, S 5.51, K 5.03, W 4.39, A 5.27, V 5.17, D 5.42, E 5.28, G 5.53, C 5.25, P 5.14, H 5.28
D19: S 4.62, R 4.57, N 4.8, C 4.4, L 4.78, V 4.77, M 4.61, P 5.06, Q 5.12, G 5.24, H 4.91, T 5.25, W 4.37, E 5.34, I 4.3, K 5.19, Y 4.47, A 5.36, F 4.46
D21: G 5.27, W 3.76, F 3.95, P 4.77, L 4.52, S 4.97, N 4.77, Q 4.92, C 4.71, T 4.97, A 5.07, Y 4.46, K 5.48, H 4.38, I 4.45, R 4.69, M 4.05, V 4.94, E 5.03
L11: H 5.75, C 5.25, E 5.02, A 5.54, T 5.44, W 5.38, S 5.54, K 5.6, P 5.45, Y 5.7, Q 5.33, V 5.65, D 5.77, M 5.31, I 5.11, R 5.72, F 5.39, G 5.6, N 5.24
V16: T 5.53, A 4.95, I 5.26, H 5.22, L 5.06, E 4.98, D 5.66, R 5, N 5.62, M 4.6, K 5.09, G 5.14, Y 5.05, C 5.31, P 5.52, S 4.88, Q 4.61, F 5.1, W 4.67
T17: N 5.19, S 5.5, V 5.37, Q 5.24, I 4.75, M 5.14, D 5.46, F 5, W 4.69, A 5.21, G 5, E 5.68, K 5.4, R 5.18, L 4.88, Y 4.87, C 5.19, P 5.44, H 5.17
P23: H 4.85, G 5.44, W 4.07, N 5.87, I 5.16, M 5.22, Q 5.3, Y 4.52, K 5.17, T 5.5, L 5.25, R 4.89, D 5.81, V 5.29, S 5.3, C 4.93, A 5.3, F 4.35, E 5.55
Q15: E 5.77, V 5.12, F 4.8, L 4.12, P 5.33, Y 4.5, N 5.75, A 5.45, G 5.46, I 4.72, S 5.4, R 4.17, H 5.51, D 5.23, T 5.24, W 4.11, M 5.27, C 5.31, K 5.16
I22: C 5.67, R 5.22, Y 5.26, F 5.15, P 5.37, Q 5.31, D 5.64, G 5.26, N 5.25, M 5.08, S 5.64, V 5.54, E 5.53, T 5.58, W 5.34, K 5.65, H 5.37, L 5.39, A 5.72
G20: T 5.41, M 4.83, H 5.53, K 5.28, E 5.62, L 5.04, D 5.56, Q 4.75, S 5.32, A 5.24, P 4.97, C 5.3, V 4.97, N 5.31, W 4.73, Y 5.09, F 4.18, I 5.29, R 4.89
Q18: C 5.27, S 5.54, P 5.18, Y 4.61, T 5.02, E 5.38, A 5.46, D 5.63, L 5.25, M 4.83, K 5.17, W 4.67, I 4.62, R 5.09, F 4.26, G 5.49, H 5.22, V 4.92, N 4.68
C13: E 5.54, Q 5.71, F 5.04, A 5.17, D 5.46, M 4.93, N 5.61, W 4.36, Y 5.3, P 5.67, G 5.54, T 5.48, H 5.63, V 4.77, S 5.43, L 5.46, R 5.33, I 5.73, K 5.18
T14: Y 5.09, P 5.49, K 5.46, N 5.31, M 4.86, A 5.29, E 5.51, L 5.17, Q 5.57, F 3.97, R 4.41, V 5.31, H 4.91, W 4.16, G 5.17, S 5.27, I 4.99, C 4.97, D 5.25

Variants of: B2
Experiment: as above
Conditions: c terminus: a fixed tail appended

Protein stability index: each site, then its substitutions
S1: R 4.05, I 4.92, E 5.47, Q 4.02, G 3.81, T 4.88, Y 2.21, N 3.13, A 5.07, F 2.59, K 4.47, L 4.91, V 4.59, H 4.57, P 5.3, D 5.21, M 4.49, W 4.53, C 3.46
P2: G 4.22, S 3.93, D 4.86, F 2.53, T 3.23, M 3.75, C 2.03, Q 4.47, E 4.43, R 4.47, H 4.2, L 2.43, N 4.42, I 2.5, K 4.44, A 2.22
